Laboratory results: paper PMC10954123

Assays:
[1] = molecular target: His6x-MotE (mature form of MotE of Cereibacter sphaeroides) (Cereibacter sphaeroides); test: non-reducing SDS-PAGE; purified His6x-MotE, loading buffer without or with beta-mercaptoethanol, Coomassie blue stain; monomer to disulfide-linked dimer
[2] = molecular target: MotE, endogenous in Cereibacter sphaeroides AM1 (Cereibacter sphaeroides (endogenous in AM1)); test: non-reducing SDS-PAGE; total cell extracts of AM1 prepared without or with beta-mercaptoethanol, immunodetection with anti-MotE; monomer to disulfide-linked dimer

| Substance | stoichiometry N [1] | stoichiometry N [2] |
| --- | --- | --- |
| His6x-MotE (mature form of MotE of Cereibacter sphaeroides) (natural protein) | 2 |  |
| MotE, endogenous in Cereibacter sphaeroides AM1 (natural protein) |  | 2 |
